“And” between values parts separate entries of the source, which are not always exact repeats. Equal values may be shown once.
Columns and labels:
[1] = biological target: PLCG2 tandem SH2 domains (human); assay: peptide or protein array; SH2/PTB proteins spotted on aldehyde slides, rhodamine peptide titrated in buffer B (20 mM HEPES, 100 mM KCl, 0.1% Tween-20, 5 mM DTT, pH 7.8), 1 h at room temperature; replicate assays
[2] = biological target: RASA1 N-terminal SH2 domain (human) (UniProt P20936); assay: as above
GRB7 SH2 domain (human) = GRB7 SH2 domain (human) (UniProt Q14451); assay: as above
[3] = biological target: SYK tandem SH2 domains (human); assay: as above
YES1 SH2 domain (human) = YES1 SH2 domain (human) (UniProt P07947); assay: as above
[4] = biological target: SYK N-terminal SH2 domain (human); assay: as above
FES SH2 domain (human) = FES SH2 domain (human) (UniProt P07332); assay: as above
BLK SH2 domain (human) = BLK SH2 domain (human) (UniProt P51451); assay: as above
TNS1 SH2 domain (human) = TNS1 SH2 domain (human) (UniProt Q9HBL0); assay: as above
[5] = biological target: PIK3R3 tandem SH2 domains (human); assay: as above
[6] = biological target: SH3BP2 SH2 domain (human) (UniProt P78314); assay: as above
[7] = biological target: PIK3R3 C-terminal SH2 domain (human); assay: SPR; Biacore 3000; 6X His SH2 proteins held on a Ni-NTA chip, dye-free peptides in solution, equilibrium
SHC3 SH2 domain (human) = SHC3 SH2 domain (human) (UniProt Q92529); assay: as above
[8] = biological target: SH2D3A SH2 domain (human) (UniProt Q9BRG2); assay: peptide or protein array; SH2/PTB proteins spotted on aldehyde slides, rhodamine peptide titrated in buffer B (20 mM HEPES, 100 mM KCl, 0.1% Tween-20, 5 mM DTT, pH 7.8), 1 h at room temperature; replicate assays
LCK SH2 domain (human) = LCK SH2 domain (human) (UniProt P06239); assay: as above
GRAP2 SH2 domain (human) = GRAP2 SH2 domain (human) (UniProt O75791); assay: as above
ITK SH2 domain (human) = ITK SH2 domain (human) (UniProt Q08881); assay: as above
TNS3 SH2 domain (human) [9] = biological target: TNS3 SH2 domain (human) (UniProt Q68CZ2); assay: as above
TEC SH2 domain (human) = TEC SH2 domain (human) (UniProt P42680); assay: as above
[10] = biological target: PLCG1 tandem SH2 domains (human); assay: as above
SRC SH2 domain (human) = SRC SH2 domain (human) (UniProt P12931); assay: as above
[11] = biological target: ErbB1 pY801 phosphopeptide, rhodamine-labelled (human); assay: fluorescence polarisation; saturation binding in solution: rhodamine peptide fixed at 10 nM, protein titrated 0.002-10 uM, 20 min at room temperature; assay buffer 20 mM HEPES, 100 mM KCl, 0.1% Tween-20, 5 mM DTT, pH 7.8; apparent KD
[12] = biological target: ErbB1 pY978 phosphopeptide, rhodamine-labelled (human); assay: as above
[13] = biological target: ErbB4 pY833 phosphopeptide, rhodamine-labelled (human); assay: as above
[14] = biological target: MET pY1313 phosphopeptide, rhodamine-labelled; assay: as above
[15] = biological target: ErbB1 pY900 phosphopeptide, rhodamine-labelled (human); assay: as above
[16] = biological target: PLCG1 C-terminal SH2 domain (human); assay: SPR; Biacore 3000; 6X His SH2 proteins held on a Ni-NTA chip, dye-free peptides in solution, equilibrium
TNS3 SH2 domain (human) [17] = biological target: TNS3 SH2 domain (human) (UniProt Q68CZ2); assay: as above
[18] = biological target: PIK3R1 N-terminal SH2 domain (human); assay: as above
[19] = biological target: ErbB4 pY906 phosphopeptide, rhodamine-labelled (human); assay: fluorescence polarisation; saturation binding in solution: rhodamine peptide fixed at 10 nM, protein titrated 0.002-10 uM, 20 min at room temperature; assay buffer 20 mM HEPES, 100 mM KCl, 0.1% Tween-20, 5 mM DTT, pH 7.8; apparent KD
[20] = biological target: KIT pY936 phosphopeptide, rhodamine-labelled; assay: as above
[21] = biological target: ErbB2 pY685 phosphopeptide, rhodamine-labelled (human); assay: as above

Chain of SH2D3A SH2 domain (human) (Q9BRG2 15-114): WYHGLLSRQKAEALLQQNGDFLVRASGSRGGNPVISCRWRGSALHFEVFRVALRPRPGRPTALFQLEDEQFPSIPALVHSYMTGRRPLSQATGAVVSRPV
Chain of LCK SH2 domain (human) (P06239 127-224): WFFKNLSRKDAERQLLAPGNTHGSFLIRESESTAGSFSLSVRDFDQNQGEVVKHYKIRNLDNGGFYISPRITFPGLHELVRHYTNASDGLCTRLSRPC
Chain of YES1 SH2 domain (human) (P07947 158-255): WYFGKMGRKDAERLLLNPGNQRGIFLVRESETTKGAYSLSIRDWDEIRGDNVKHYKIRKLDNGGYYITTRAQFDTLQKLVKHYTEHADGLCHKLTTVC
Chain of TNS3 SH2 domain (human) (Q68CZ2 1172-1282): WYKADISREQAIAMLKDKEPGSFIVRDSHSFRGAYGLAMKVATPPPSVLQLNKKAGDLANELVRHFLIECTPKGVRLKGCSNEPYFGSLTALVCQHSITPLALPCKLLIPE
Chain of GRB7 SH2 domain (human) (Q14451 431-527): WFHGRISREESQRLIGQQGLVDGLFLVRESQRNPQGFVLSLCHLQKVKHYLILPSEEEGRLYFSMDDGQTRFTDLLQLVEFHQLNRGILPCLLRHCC
Chain of BLK SH2 domain (human) (P51451 124-220): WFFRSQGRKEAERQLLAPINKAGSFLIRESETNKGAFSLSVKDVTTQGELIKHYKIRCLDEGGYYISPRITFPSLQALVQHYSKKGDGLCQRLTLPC
Chain of TNS1 SH2 domain (human) (Q9HBL0 1567-1676): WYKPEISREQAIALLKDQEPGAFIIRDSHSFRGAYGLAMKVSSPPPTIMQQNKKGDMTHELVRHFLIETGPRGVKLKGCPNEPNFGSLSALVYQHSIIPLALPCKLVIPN
Chain of FES SH2 domain (human) (P07332 460-549): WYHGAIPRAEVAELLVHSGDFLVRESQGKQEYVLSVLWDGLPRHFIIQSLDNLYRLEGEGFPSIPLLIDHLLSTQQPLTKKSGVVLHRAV
Chain of TEC SH2 domain (human) (P42680 247-345): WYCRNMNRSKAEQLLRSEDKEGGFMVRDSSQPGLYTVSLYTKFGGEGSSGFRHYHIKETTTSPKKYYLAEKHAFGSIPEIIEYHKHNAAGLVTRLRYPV
Chain of RASA1 N-terminal SH2 domain (human) (P20936 whole entry, the tested form may be a part): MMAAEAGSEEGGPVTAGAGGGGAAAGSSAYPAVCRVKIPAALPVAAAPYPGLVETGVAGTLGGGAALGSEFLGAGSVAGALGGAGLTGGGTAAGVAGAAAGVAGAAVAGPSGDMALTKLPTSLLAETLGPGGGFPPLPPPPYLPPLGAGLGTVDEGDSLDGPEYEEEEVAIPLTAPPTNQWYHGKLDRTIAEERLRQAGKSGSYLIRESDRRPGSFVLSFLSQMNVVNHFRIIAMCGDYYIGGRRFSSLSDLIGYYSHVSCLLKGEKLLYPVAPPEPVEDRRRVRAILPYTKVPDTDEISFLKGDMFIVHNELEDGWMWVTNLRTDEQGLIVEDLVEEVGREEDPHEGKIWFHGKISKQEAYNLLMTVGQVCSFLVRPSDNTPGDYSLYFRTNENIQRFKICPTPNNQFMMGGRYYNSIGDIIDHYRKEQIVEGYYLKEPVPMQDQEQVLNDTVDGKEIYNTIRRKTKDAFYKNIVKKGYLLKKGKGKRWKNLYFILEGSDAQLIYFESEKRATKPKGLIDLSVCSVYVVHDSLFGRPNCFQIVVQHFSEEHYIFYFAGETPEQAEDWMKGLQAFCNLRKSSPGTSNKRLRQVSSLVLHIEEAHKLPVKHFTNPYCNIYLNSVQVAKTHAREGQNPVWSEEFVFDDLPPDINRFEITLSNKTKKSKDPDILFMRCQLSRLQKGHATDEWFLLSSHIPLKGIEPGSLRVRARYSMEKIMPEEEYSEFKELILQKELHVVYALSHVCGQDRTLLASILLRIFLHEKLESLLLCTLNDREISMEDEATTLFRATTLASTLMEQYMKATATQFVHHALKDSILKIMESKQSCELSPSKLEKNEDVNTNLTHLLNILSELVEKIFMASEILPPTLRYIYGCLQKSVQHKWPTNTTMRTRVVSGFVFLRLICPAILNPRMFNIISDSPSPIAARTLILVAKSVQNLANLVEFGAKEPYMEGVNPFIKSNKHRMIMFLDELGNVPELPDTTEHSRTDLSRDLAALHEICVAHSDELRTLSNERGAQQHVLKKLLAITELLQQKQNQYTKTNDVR
Chain of ITK SH2 domain (human) (Q08881 239-338): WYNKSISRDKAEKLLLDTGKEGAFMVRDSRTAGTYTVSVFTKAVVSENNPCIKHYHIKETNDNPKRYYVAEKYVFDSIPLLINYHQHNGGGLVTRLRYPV
Chain of GRAP2 SH2 domain (human) (O75791 58-149): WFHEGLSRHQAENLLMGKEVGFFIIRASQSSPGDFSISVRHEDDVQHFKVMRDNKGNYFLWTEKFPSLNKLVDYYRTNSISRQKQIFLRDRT
Chain of SHC3 SH2 domain (human) (Q92529 499-590): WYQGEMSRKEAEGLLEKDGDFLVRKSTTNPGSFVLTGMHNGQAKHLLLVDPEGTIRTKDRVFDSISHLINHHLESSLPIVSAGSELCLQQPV
Chain of SH3BP2 SH2 domain (human) (P78314 457-555): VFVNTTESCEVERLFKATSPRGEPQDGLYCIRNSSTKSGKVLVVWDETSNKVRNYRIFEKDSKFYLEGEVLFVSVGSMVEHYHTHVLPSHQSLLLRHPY

Question: For “ErbB3 pY1132 phosphopeptide, rhodamine-labelled, for protein microarrays”, which Kd [1] is on record?
Answer: Its Kd is 1190 nM.

Question: And the Kd [2]?
Answer: The Kd was 5150 nM.

Question: And the Kd (GRB7 SH2 domain (human))?
Answer: Its Kd is 10 nM.

Question: What about the Kd [3] of the same substance?
Answer: Its Kd is 785 nM and 4980 nM.

Question: What about the Kd (YES1 SH2 domain (human)) of the same substance?
Answer: The Kd was 735 nM and 2260 nM.

Question: And the Kd [4]?
Answer: The Kd was 2400 nM.

Question: And the Kd (FES SH2 domain (human))?
Answer: The Kd was 3200 nM.

Question: What about the Kd (BLK SH2 domain (human)) of the same substance?
Answer: The Kd was 199 nM.

Question: And the Kd (TNS1 SH2 domain (human))?
Answer: The Kd was 1.44 nM.

Question: What about the Kd [5] of the same substance?
Answer: Its Kd is 7.73 nM.

Question: What about the Kd [6] of the same substance?
Answer: Its Kd is 6400 nM.

Question: ErbB4 pY906 phosphopeptide, dye-free was tested. Which Kd [7] did it give?
Answer: The Kd was 566 nM.

Question: What about the Kd (SHC3 SH2 domain (human)) of the same substance?
Answer: The Kd was 6710 nM.

Question: Which Kd [8] does the source give for “ErbB3 pY789 phosphopeptide, rhodamine-labelled, for protein microarrays” here?
Answer: Its Kd is 170 nM and 401 nM and 402 nM.

Question: And the Kd (LCK SH2 domain (human))?
Answer: Its Kd is 550 nM and 1140 nM and 1120 nM.

Question: And the Kd (GRAP2 SH2 domain (human))?
Answer: Its Kd is 1310 nM.

Question: What about the Kd (ITK SH2 domain (human)) of the same substance?
Answer: The Kd was 1160 nM.

Question: What about the Kd (GRB7 SH2 domain (human)) of the same substance?
Answer: Its Kd is 1190 nM.

Question: What about the Kd [4] of the same substance?
Answer: The Kd was 609 nM and 1330 nM.

Question: And the Kd (TNS3 SH2 domain (human) [9])?
Answer: Its Kd is 802 nM.

Question: What about the Kd (TEC SH2 domain (human)) of the same substance?
Answer: The Kd was 1660 nM.

Question: What about the Kd [10] of the same substance?
Answer: The Kd was 380 nM.

Question: And the Kd (SRC SH2 domain (human))?
Answer: Its Kd is 1850 nM and 424 nM.

Question: Which results are given for “PLCG1 C-terminal SH2 domain (domain or fragment)”?
Answer: Kd [11]: 9440 nM; Kd [12]: 1370 nM; Kd [13]: 4730 nM; Kd [14]: 2280 nM; Kd [15]: 15500 nM

Question: ErbB1 pY801 phosphopeptide, dye-free was tested. Which Kd [16] did it give?
Answer: Its Kd is 2330 nM.

Question: And the Kd (TNS3 SH2 domain (human) [17])?
Answer: Its Kd is 916 nM.

Question: What about the Kd [18] of the same substance?
Answer: The Kd was 2800 nM.

Question: Which Kd [19] does the source give for “PIK3R3 C-terminal SH2 domain (domain or fragment)” here?
Answer: The Kd was 1840 nM.

Question: What about the Kd [20] of the same substance?
Answer: Its Kd is 8380 nM.

Question: And the Kd [14]?
Answer: The Kd was 255 nM.

Question: What about the Kd [21] of the same substance?
Answer: Its Kd is 4430 nM.

Question: And the Kd [15]?
Answer: The Kd was 5830 nM.

— PMC3433420
